Results taken from patent US20210388087A1 (Chugai, published 2021).

T1: Human CD3eg linker (human)
T1 construct: Single chain: epsilon and gamma subunits of human CD3 joined by a 29-mer linker, Flag-tag at the C-terminus; also called recombinant human CD3
T1 chain: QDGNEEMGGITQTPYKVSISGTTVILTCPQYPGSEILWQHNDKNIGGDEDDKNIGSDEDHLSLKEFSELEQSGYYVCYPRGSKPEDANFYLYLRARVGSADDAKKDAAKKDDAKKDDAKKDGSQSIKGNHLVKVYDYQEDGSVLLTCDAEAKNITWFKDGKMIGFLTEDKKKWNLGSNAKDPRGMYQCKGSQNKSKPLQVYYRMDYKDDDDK


Molecular target: T1, Human CD3eg linker
Assay: Biacore SPR, vs template H183/L072

| Binder | fold change of affinity |
| --- | --- |
| H183/L072 VH V95A (antibody, name in Kabat numbering, V domains shown) VH: QVQLVESGGGLVQPGRSLRLSCAASGFTFSNAWMHWVRQAPGKGLEWVAQIKDKGNAYAAYYAPSVKGRFTISRDDSKNSIYLQMNSLKTEDTAVYYCHYAHYASASTVLPAFGVDAWGQGTTVTVSS VL: DIVMTQSPLSLPVTPGEPASISCQASQELVHMNRNTYLHWYQQKPGQAPRLLIYKVSNRFPGVPDRFSGSGSGTDFTLKISRVEAEDVGVYYCAQGTSVPFTFGQGTKLEIK | 0 fold |
| H183/L072 VH V100cI (antibody, name in Kabat numbering, V domains shown) VH: QVQLVESGGGLVQPGRSLRLSCAASGFTFSNAWMHWVRQAPGKGLEWVAQIKDKGNAYAAYYAPSVKGRFTISRDDSKNSIYLQMNSLKTEDTAVYYCHYVHYASASTILPAFGVDAWGQGTTVTVSS VL: DIVMTQSPLSLPVTPGEPASISCQASQELVHMNRNTYLHWYQQKPGQAPRLLIYKVSNRFPGVPDRFSGSGSGTDFTLKISRVEAEDVGVYYCAQGTSVPFTFGQGTKLEIK | 1 fold |
| H183/L072 VH V100cA (antibody, name in Kabat numbering, V domains shown) VH: QVQLVESGGGLVQPGRSLRLSCAASGFTFSNAWMHWVRQAPGKGLEWVAQIKDKGNAYAAYYAPSVKGRFTISRDDSKNSIYLQMNSLKTEDTAVYYCHYVHYASASTALPAFGVDAWGQGTTVTVSS VL: DIVMTQSPLSLPVTPGEPASISCQASQELVHMNRNTYLHWYQQKPGQAPRLLIYKVSNRFPGVPDRFSGSGSGTDFTLKISRVEAEDVGVYYCAQGTSVPFTFGQGTKLEIK | 1.1 fold |
| H183/L072 VH V95M (antibody, name in Kabat numbering, V domains shown) VH: QVQLVESGGGLVQPGRSLRLSCAASGFTFSNAWMHWVRQAPGKGLEWVAQIKDKGNAYAAYYAPSVKGRFTISRDDSKNSIYLQMNSLKTEDTAVYYCHYMHYASASTVLPAFGVDAWGQGTTVTVSS VL: DIVMTQSPLSLPVTPGEPASISCQASQELVHMNRNTYLHWYQQKPGQAPRLLIYKVSNRFPGVPDRFSGSGSGTDFTLKISRVEAEDVGVYYCAQGTSVPFTFGQGTKLEIK | 0.3 fold |
| H183/L072 VH V100iM (antibody, name in Kabat numbering, V domains shown) VH: QVQLVESGGGLVQPGRSLRLSCAASGFTFSNAWMHWVRQAPGKGLEWVAQIKDKGNAYAAYYAPSVKGRFTISRDDSKNSIYLQMNSLKTEDTAVYYCHYVHYASASTVLPAFGMDAWGQGTTVTVSS VL: DIVMTQSPLSLPVTPGEPASISCQASQELVHMNRNTYLHWYQQKPGQAPRLLIYKVSNRFPGVPDRFSGSGSGTDFTLKISRVEAEDVGVYYCAQGTSVPFTFGQGTKLEIK | 5.6 fold |
| H183/L072 VH V100cM (antibody, name in Kabat numbering, V domains shown) VH: QVQLVESGGGLVQPGRSLRLSCAASGFTFSNAWMHWVRQAPGKGLEWVAQIKDKGNAYAAYYAPSVKGRFTISRDDSKNSIYLQMNSLKTEDTAVYYCHYVHYASASTMLPAFGVDAWGQGTTVTVSS VL: DIVMTQSPLSLPVTPGEPASISCQASQELVHMNRNTYLHWYQQKPGQAPRLLIYKVSNRFPGVPDRFSGSGSGTDFTLKISRVEAEDVGVYYCAQGTSVPFTFGQGTKLEIK | 1.2 fold |
| H183/L072 VH V100iP (antibody, name in Kabat numbering, V domains shown) VH: QVQLVESGGGLVQPGRSLRLSCAASGFTFSNAWMHWVRQAPGKGLEWVAQIKDKGNAYAAYYAPSVKGRFTISRDDSKNSIYLQMNSLKTEDTAVYYCHYVHYASASTVLPAFGPDAWGQGTTVTVSS VL: DIVMTQSPLSLPVTPGEPASISCQASQELVHMNRNTYLHWYQQKPGQAPRLLIYKVSNRFPGVPDRFSGSGSGTDFTLKISRVEAEDVGVYYCAQGTSVPFTFGQGTKLEIK | 1.2 fold |

Other lines, results leading:

| fold change of affinity | Binder |
| --- | --- |
| 1 fold | H183/L072 VH V100cP (antibody, name in Kabat numbering, V domains shown) VH: QVQLVESGGGLVQPGRSLRLSCAASGFTFSNAWMHWVRQAPGKGLEWVAQIKDKGNAYAAYYAPSVKGRFTISRDDSKNSIYLQMNSLKTEDTAVYYCHYVHYASASTPLPAFGVDAWGQGTTVTVSS VL: DIVMTQSPLSLPVTPGEPASISCQASQELVHMNRNTYLHWYQQKPGQAPRLLIYKVSNRFPGVPDRFSGSGSGTDFTLKISRVEAEDVGVYYCAQGTSVPFTFGQGTKLEIK |
| 1.8 fold | H183/L072 VH V100iL (antibody, name in Kabat numbering, V domains shown) VH: QVQLVESGGGLVQPGRSLRLSCAASGFTFSNAWMHWVRQAPGKGLEWVAQIKDKGNAYAAYYAPSVKGRFTISRDDSKNSIYLQMNSLKTEDTAVYYCHYVHYASASTVLPAFGLDAWGQGTTVTVSS VL: DIVMTQSPLSLPVTPGEPASISCQASQELVHMNRNTYLHWYQQKPGQAPRLLIYKVSNRFPGVPDRFSGSGSGTDFTLKISRVEAEDVGVYYCAQGTSVPFTFGQGTKLEIK |
| 1.2 fold | H183/L072 VH V100cL (antibody, name in Kabat numbering, V domains shown) VH: QVQLVESGGGLVQPGRSLRLSCAASGFTFSNAWMHWVRQAPGKGLEWVAQIKDKGNAYAAYYAPSVKGRFTISRDDSKNSIYLQMNSLKTEDTAVYYCHYVHYASASTLLPAFGVDAWGQGTTVTVSS VL: DIVMTQSPLSLPVTPGEPASISCQASQELVHMNRNTYLHWYQQKPGQAPRLLIYKVSNRFPGVPDRFSGSGSGTDFTLKISRVEAEDVGVYYCAQGTSVPFTFGQGTKLEIK |
| 7.5 fold | H183/L072 VH V95I (antibody, name in Kabat numbering, V domains shown) VH: QVQLVESGGGLVQPGRSLRLSCAASGFTFSNAWMHWVRQAPGKGLEWVAQIKDKGNAYAAYYAPSVKGRFTISRDDSKNSIYLQMNSLKTEDTAVYYCHYIHYASASTVLPAFGVDAWGQGTTVTVSS VL: DIVMTQSPLSLPVTPGEPASISCQASQELVHMNRNTYLHWYQQKPGQAPRLLIYKVSNRFPGVPDRFSGSGSGTDFTLKISRVEAEDVGVYYCAQGTSVPFTFGQGTKLEIK |
| 4.6 fold | H183/L072 VH V100iA (antibody, name in Kabat numbering, V domains shown) VH: QVQLVESGGGLVQPGRSLRLSCAASGFTFSNAWMHWVRQAPGKGLEWVAQIKDKGNAYAAYYAPSVKGRFTISRDDSKNSIYLQMNSLKTEDTAVYYCHYVHYASASTVLPAFGADAWGQGTTVTVSS VL: DIVMTQSPLSLPVTPGEPASISCQASQELVHMNRNTYLHWYQQKPGQAPRLLIYKVSNRFPGVPDRFSGSGSGTDFTLKISRVEAEDVGVYYCAQGTSVPFTFGQGTKLEIK |
| 0 fold | H183/L072 VH V95P (antibody, name in Kabat numbering, V domains shown) VH: QVQLVESGGGLVQPGRSLRLSCAASGFTFSNAWMHWVRQAPGKGLEWVAQIKDKGNAYAAYYAPSVKGRFTISRDDSKNSIYLQMNSLKTEDTAVYYCHYPHYASASTVLPAFGVDAWGQGTTVTVSS VL: DIVMTQSPLSLPVTPGEPASISCQASQELVHMNRNTYLHWYQQKPGQAPRLLIYKVSNRFPGVPDRFSGSGSGTDFTLKISRVEAEDVGVYYCAQGTSVPFTFGQGTKLEIK |
| 0 fold | H183/L072 VH V95L (antibody, name in Kabat numbering, V domains shown) VH: QVQLVESGGGLVQPGRSLRLSCAASGFTFSNAWMHWVRQAPGKGLEWVAQIKDKGNAYAAYYAPSVKGRFTISRDDSKNSIYLQMNSLKTEDTAVYYCHYLHYASASTVLPAFGVDAWGQGTTVTVSS VL: DIVMTQSPLSLPVTPGEPASISCQASQELVHMNRNTYLHWYQQKPGQAPRLLIYKVSNRFPGVPDRFSGSGSGTDFTLKISRVEAEDVGVYYCAQGTSVPFTFGQGTKLEIK |
| 0.8 fold | H183/L072 VH V100iI (antibody, name in Kabat numbering, V domains shown) VH: QVQLVESGGGLVQPGRSLRLSCAASGFTFSNAWMHWVRQAPGKGLEWVAQIKDKGNAYAAYYAPSVKGRFTISRDDSKNSIYLQMNSLKTEDTAVYYCHYVHYASASTVLPAFGIDAWGQGTTVTVSS VL: DIVMTQSPLSLPVTPGEPASISCQASQELVHMNRNTYLHWYQQKPGQAPRLLIYKVSNRFPGVPDRFSGSGSGTDFTLKISRVEAEDVGVYYCAQGTSVPFTFGQGTKLEIK |
